# According to patent publication US20040170969:
# Test system: recombinant MOB expressed as a GST-fusion protein
# FLAG-Ndr (cells treated with okadaic acid), sequence (chain, as listed by the source): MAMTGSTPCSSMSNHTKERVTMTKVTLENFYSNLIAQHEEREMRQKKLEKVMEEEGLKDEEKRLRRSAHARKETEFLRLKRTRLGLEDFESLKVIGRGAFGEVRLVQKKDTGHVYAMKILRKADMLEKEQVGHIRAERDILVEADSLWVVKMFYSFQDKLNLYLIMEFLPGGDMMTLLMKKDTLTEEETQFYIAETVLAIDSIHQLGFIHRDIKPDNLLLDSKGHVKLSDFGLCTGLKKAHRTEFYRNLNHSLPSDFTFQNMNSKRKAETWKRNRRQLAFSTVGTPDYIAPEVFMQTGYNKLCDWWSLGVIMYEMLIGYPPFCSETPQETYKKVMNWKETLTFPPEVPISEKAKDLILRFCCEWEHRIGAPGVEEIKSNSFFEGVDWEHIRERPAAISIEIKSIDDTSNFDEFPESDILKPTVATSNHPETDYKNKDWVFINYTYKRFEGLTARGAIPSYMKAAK
substance,measurement,value
FLAG-Ndr (cells treated with okadaic acid),phosphorylation of GST-MOB by Ndr (FIG. 19),recombinant MOB expressed as a GST-fusion protein is specifically phosphorylated by active Ndr
